This is an account of results in doi:10.1101/2025.09.29.679184.

In assay [1] the target is N-terminally Avi-tagged Lotus SYMRK kinase 4A (Lotus japonicus). Put plainly: BLI. (In general: BLI is a label-free optical method that tracks binding on a fibre tip over time.)
Assay [2] deals with N-terminally Avi-tagged Lotus SYMRK kinase 4D (Lotus japonicus). Put plainly: BLI.

Regarding “Lotus japonicus Early Phosphorylated Protein 1a (EPP1a) WT, purified (natural protein)”, the results for the KD1 (2:1 heterogenous ligand fit) in assay [1] and in assay [2] were 2.2 µM and 452 nM, respectively. Besides, the KD2 (2:1 heterogenous ligand fit) came out at 6.4 µM in assay [1] and 1 µM in assay [2].
